The source of these data is patent publication US6045793.

For the assay, the target named is [Met-(-1)]rOncG20 (Rana pipiens).

“Placental ribonuclease inhibitor (from UniProt P13489)”: the Fold Difference of IC50 (ng/ml) in rabbit reticulocyte lysate, (+)PRI against (-)PRI stood at 0.9 fold and the IC50 (ng/ml) of the RNase for inhibition of protein synthesis in rabbit reticulocyte lysate, (+)PRI came out at 24 ng/mL.
